{"source": "the supplement of paper PMC9170038", "test_system": "MS2 coat protein", "experiment": "apparent KD of MS2 coat protein; higher = weaker reporter binding", "details": "Eterna round: R107", "description": "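RNA-MaP round R107: designed RNA switches with theophylline, tryptophan, arginine or FMN aptamers are transcribed on-chip within common flanks. They are titrated with SNAP-549-labelled MS2 coat protein in RNA-MaP buffer (100 mM Tris pH 7.5, 80 mM KCl, 4 mM MgCl2), without ligand or with the indicated ligand. Median apparent KD per design.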", "key": {"[1]": {"details": "input ligand: theophylline 20 uM"}, "[2]": {"details": "input ligand: tryptophan 2.4 mM"}, "[3]": {"details": "input ligand: theophylline 2 mM"}}}
{"sequence": "AAUAUAAGUGUAAUUAUAUUUAUAUCUGAUACCAGACUCUCAUGUGUCCCUUGGCAGCAGUUACAUGAGGAUCACCCAUGUAUUA [JR_Nu_SSTheophyA_Sub025]", "values": [{"measurement": "apparent KD of MS2 coat protein", "setting": "input ligand: arginine 13.2 mM", "value": 30.6, "unit": "nM"}, {"measurement": "apparent KD of MS2 coat protein", "setting": "[1]", "value": 67.6, "unit": "nM"}, {"measurement": "apparent KD of MS2 coat protein", "setting": "[2]", "value": 73.7, "unit": "nM"}]}
{"sequence": "AAUAUAAUAGACUCGUUUUAGUAUUUGGAACGAGGACCGGUACGGCCGCCACUCGUGAUUUACAUGAGGAUCACCCAUGUUAGCA [JR_SSTryptoA_Sub003]", "values": [{"measurement": "apparent KD of MS2 coat protein", "setting": "input ligand: arginine 13.2 mM", "value": 15.5, "unit": "nM"}, {"measurement": "apparent KD of MS2 coat protein", "setting": "[1]", "value": 18.4, "unit": "nM"}, {"measurement": "apparent KD of MS2 coat protein", "setting": "[3]", "value": 17.5, "unit": "nM"}]}
{"sequence": "AAUAUAUAGACGGCCGCCACUGGAAUUAAUACAUGAGGAUCACCCAUGUGAAGAGGAUAAUAACACAGGACCGGGUCUUCAUGUA [SS Tryp B Tesla 1.2]", "values": [{"measurement": "apparent KD of MS2 coat protein", "setting": "input ligand: arginine 13.2 mM", "value": 68.5, "unit": "nM"}, {"measurement": "apparent KD of MS2 coat protein", "setting": "input ligand: none", "value": 37.4, "unit": "nM"}, {"measurement": "apparent KD of MS2 coat protein", "setting": "[1]", "value": 137, "unit": "nM"}, {"measurement": "apparent KD of MS2 coat protein", "setting": "[3]", "value": 452, "unit": "nM"}, {"measurement": "apparent KD of MS2 coat protein", "setting": "[2]", "value": 138, "unit": "nM"}]}
{"sequence": "AAUCGUAAGGCGGCCGCCACUACACAUGAGGAUCACCCAUGUCUCGCAGGCUUGCGUUGGGUUAGUAGGACCGGGCCAGUAAUAA [Exclusion - Tryptophan B (Freestyle 15)]", "values": [{"measurement": "apparent KD of MS2 coat protein", "setting": "input ligand: arginine 13.2 mM", "value": 25.8, "unit": "nM"}, {"measurement": "apparent KD of MS2 coat protein", "setting": "input ligand: none", "value": 32.1, "unit": "nM"}, {"measurement": "apparent KD of MS2 coat protein", "setting": "[1]", "value": 43.2, "unit": "nM"}, {"measurement": "apparent KD of MS2 coat protein", "setting": "[3]", "value": 37, "unit": "nM"}, {"measurement": "apparent KD of MS2 coat protein", "setting": "[2]", "value": 34.5, "unit": "nM"}]}
{"sequence": "AAUGUAUGGCACAUGAGGAUCACCCAUGUGCGAGGACCGGUACGGCCGCCACUCGGUCGUGGGUUCUUAUUACUAUACAUUAAUG [XTryp A #14]", "values": [{"measurement": "apparent KD of MS2 coat protein", "setting": "input ligand: arginine 13.2 mM", "value": 11.4, "unit": "nM"}, {"measurement": "apparent KD of MS2 coat protein", "setting": "[1]", "value": 12.8, "unit": "nM"}, {"measurement": "apparent KD of MS2 coat protein", "setting": "[3]", "value": 11.6, "unit": "nM"}]}
{"sequence": "AAUGUAUUCCACAUGAGGAUCACCCAUGUGCGAGGACCGGUACGGCCGCCACUCGGUGUUGGGAUCAGUUCUGAAUACAUUAAUG [XTryp A #24]", "values": [{"measurement": "apparent KD of MS2 coat protein", "setting": "input ligand: arginine 13.2 mM", "value": 19.1, "unit": "nM"}, {"measurement": "apparent KD of MS2 coat protein", "setting": "[1]", "value": 19.2, "unit": "nM"}, {"measurement": "apparent KD of MS2 coat protein", "setting": "[3]", "value": 20.5, "unit": "nM"}]}
{"sequence": "ACAAGUCCUCAUGAUACCAGCGAUGAGACAAAGUCUCAACAUGAGGAUCACCCAUGUACUCGCCCUUGGCAGCAUACGGUUUUUG [Onedxequla]", "values": [{"measurement": "apparent KD of MS2 coat protein", "setting": "input ligand: arginine 13.2 mM", "value": 139, "unit": "nM"}, {"measurement": "apparent KD of MS2 coat protein", "setting": "[1]", "value": 373, "unit": "nM"}, {"measurement": "apparent KD of MS2 coat protein", "setting": "[2]", "value": 573, "unit": "nM"}]}
{"sequence": "ACACGAAGCUGAAGGAGCGUGGUAUAAUUUUUUACAUGAGGAUCACCCAUGUCUCAUUUUUCACAGGUAGGUCGCAGAUGCGUGA [JR_SSArginiB_Sub015]", "values": [{"measurement": "apparent KD of MS2 coat protein", "setting": "input ligand: arginine 13.2 mM", "value": 54.5, "unit": "nM"}, {"measurement": "apparent KD of MS2 coat protein", "setting": "input ligand: none", "value": 71.5, "unit": "nM"}, {"measurement": "apparent KD of MS2 coat protein", "setting": "[1]", "value": 81.6, "unit": "nM"}, {"measurement": "apparent KD of MS2 coat protein", "setting": "[3]", "value": 117, "unit": "nM"}, {"measurement": "apparent KD of MS2 coat protein", "setting": "[2]", "value": 78.7, "unit": "nM"}]}
{"sequence": "ACAUGAGGAUCACCCAUGUAAGAUGCAGAAGGAGCGGGAAAUAACCCAGGUAGGUCGCUGCGGUUUGGAUUAUUGUGUUCGUGAA [#08 Exclusion - Arginine A]", "values": [{"measurement": "apparent KD of MS2 coat protein", "setting": "input ligand: arginine 13.2 mM", "value": 11.6, "unit": "nM"}, {"measurement": "apparent KD of MS2 coat protein", "setting": "input ligand: none", "value": 12.1, "unit": "nM"}, {"measurement": "apparent KD of MS2 coat protein", "setting": "[1]", "value": 18.8, "unit": "nM"}, {"measurement": "apparent KD of MS2 coat protein", "setting": "[3]", "value": 13.8, "unit": "nM"}, {"measurement": "apparent KD of MS2 coat protein", "setting": "[2]", "value": 12.5, "unit": "nM"}]}
{"sequence": "ACAUGAGGAUCACCCAUGUACAUCACCCGACGAGGACCGGUACGGCCGCCACUCGGGUAUAUAUUUACAUCGGGUGAUUUUACGU [#23 Tryptophan A Same State]", "values": [{"measurement": "apparent KD of MS2 coat protein", "setting": "input ligand: arginine 13.2 mM", "value": 21.9, "unit": "nM"}, {"measurement": "apparent KD of MS2 coat protein", "setting": "[1]", "value": 81.2, "unit": "nM"}, {"measurement": "apparent KD of MS2 coat protein", "setting": "[3]", "value": 115, "unit": "nM"}]}
{"sequence": "ACAUGAGGAUCACCCAUGUACAUGAGGGAAGGAGCGGUACAUGAGCCAGGUAGGUCGCCCAACAGCAAAUGGCAUGUACAACGGA [hhnmullin]", "values": [{"measurement": "apparent KD of MS2 coat protein", "setting": "input ligand: arginine 13.2 mM", "value": 33.8, "unit": "nM"}, {"measurement": "apparent KD of MS2 coat protein", "setting": "input ligand: none", "value": 78.4, "unit": "nM"}, {"measurement": "apparent KD of MS2 coat protein", "setting": "[1]", "value": 74.3, "unit": "nM"}, {"measurement": "apparent KD of MS2 coat protein", "setting": "[3]", "value": 60.5, "unit": "nM"}, {"measurement": "apparent KD of MS2 coat protein", "setting": "[2]", "value": 63.5, "unit": "nM"}]}
{"sequence": "ACAUGAGGAUCACCCAUGUAGAAAGAUCCUCGAGGACCGGUACGGCCGCCACUCGAGUGGCAGUGUGUGCAGAAAAUGCGCGCGC", "values": [{"measurement": "apparent KD of MS2 coat protein", "setting": "input ligand: arginine 13.2 mM", "value": 28.6, "unit": "nM"}, {"measurement": "apparent KD of MS2 coat protein", "setting": "input ligand: none", "value": 50.9, "unit": "nM"}, {"measurement": "apparent KD of MS2 coat protein", "setting": "[1]", "value": 92.2, "unit": "nM"}, {"measurement": "apparent KD of MS2 coat protein", "setting": "[3]", "value": 81.4, "unit": "nM"}, {"measurement": "apparent KD of MS2 coat protein", "setting": "[2]", "value": 14.2, "unit": "nM"}]}
{"sequence": "ACAUGAGGAUCACCCAUGUCACGGCACGAUACCAGCUGAUGCGGUGGCCCUUGGCAGCGUGACGUUUGGUCCCGCGGAUGACACG [qsmullin]", "values": [{"measurement": "apparent KD of MS2 coat protein", "setting": "input ligand: arginine 13.2 mM", "value": 86.4, "unit": "nM"}, {"measurement": "apparent KD of MS2 coat protein", "setting": "[1]", "value": 280, "unit": "nM"}, {"measurement": "apparent KD of MS2 coat protein", "setting": "[2]", "value": 240, "unit": "nM"}]}
{"sequence": "ACAUGAGGAUCACCCAUGUCUGCCACUGAUACCAGCGGAUGCCAACGCCCUUGGCAGCAGAACAUGAGGAUCACCCAUGUAGGCA [Same State Theophylline A GF25]", "values": [{"measurement": "apparent KD of MS2 coat protein", "setting": "input ligand: arginine 13.2 mM", "value": 99.5, "unit": "nM"}, {"measurement": "apparent KD of MS2 coat protein", "setting": "[1]", "value": 303, "unit": "nM"}, {"measurement": "apparent KD of MS2 coat protein", "setting": "[2]", "value": 297, "unit": "nM"}]}
{"sequence": "ACAUGAGGAUCACCCAUGUGAUGGCACGAUACCAGCUGAUCCCGUGGCCCUUGGCAGCGUCCGGUGUGGUCCGGCGGGUGGGACG [qqwmullin]", "values": [{"measurement": "apparent KD of MS2 coat protein", "setting": "input ligand: arginine 13.2 mM", "value": 30.1, "unit": "nM"}, {"measurement": "apparent KD of MS2 coat protein", "setting": "input ligand: none", "value": 21.5, "unit": "nM"}, {"measurement": "apparent KD of MS2 coat protein", "setting": "[1]", "value": 97.8, "unit": "nM"}, {"measurement": "apparent KD of MS2 coat protein", "setting": "[3]", "value": 25.9, "unit": "nM"}, {"measurement": "apparent KD of MS2 coat protein", "setting": "[2]", "value": 21.2, "unit": "nM"}]}
{"sequence": "ACAUGAGGAUCACCCAUGUGCCGUCUUGAUACCAGACCCGAAGUAGUCCCUUGGCAGCAACUACGUGACGGUCGCCCAUGUGUAG [rremullin]", "values": [{"measurement": "apparent KD of MS2 coat protein", "setting": "input ligand: arginine 13.2 mM", "value": 14, "unit": "nM"}, {"measurement": "apparent KD of MS2 coat protein", "setting": "[1]", "value": 20.4, "unit": "nM"}, {"measurement": "apparent KD of MS2 coat protein", "setting": "[2]", "value": 14.7, "unit": "nM"}]}
{"sequence": "ACAUGAGGAUCACCCAUGUGCCGUCUUGAUACCAGACCCGAAGUAGUCCCUUGGCAGCAACUACGUGAGGGUCGCCCAUGUGUAG [5kullin]", "values": [{"measurement": "apparent KD of MS2 coat protein", "setting": "input ligand: arginine 13.2 mM", "value": 16.1, "unit": "nM"}, {"measurement": "apparent KD of MS2 coat protein", "setting": "input ligand: none", "value": 14.5, "unit": "nM"}, {"measurement": "apparent KD of MS2 coat protein", "setting": "[1]", "value": 22.2, "unit": "nM"}, {"measurement": "apparent KD of MS2 coat protein", "setting": "[3]", "value": 16.7, "unit": "nM"}, {"measurement": "apparent KD of MS2 coat protein", "setting": "[2]", "value": 13.7, "unit": "nM"}]}
{"sequence": "ACAUGAGGAUCACCCAUGUGGCGUCUUGAUACCAGACCCGCACUAGUCCCUUGGCAGCAACUACGUGAGGGUCGCCCAUGUGUAG [zxdullin]", "values": [{"measurement": "apparent KD of MS2 coat protein", "setting": "input ligand: arginine 13.2 mM", "value": 32.4, "unit": "nM"}, {"measurement": "apparent KD of MS2 coat protein", "setting": "[1]", "value": 50.8, "unit": "nM"}, {"measurement": "apparent KD of MS2 coat protein", "setting": "[2]", "value": 34.4, "unit": "nM"}]}
